One substance from patent US20250002998A1 can be followed below.

Experiment [1] deals with feline FAP in formalin fixed, paraffin embedded feline tissue sections (feline). Put plainly: immunohistochemistry on a formalin fixed, paraffin embedded kidney section of cat #20-01692 with a low level of fibrosis (fibrosis score 1).
Experiment [2] has the same target. The experiment is described as follows: immunohistochemistry on a formalin fixed, paraffin embedded kidney section of cat #20-00774 with a higher level of fibrosis (fibrosis score 3).
Experiment [3] has the same target. Put plainly: immunohistochemistry on a formalin fixed, paraffin embedded kidney section of cat #20-06613 with a higher level of fibrosis (fibrosis score 3).
The target is the same in experiment [4]. Put plainly: immunohistochemistry on a formalin fixed, paraffin embedded kidney section of cat #20-10270 without fibrosis (fibrosis score 0); the score tells that no FAP was detected in this tissue, not that the antibody fails to bind FAP.

“cross-reactive anti-FAP monoclonal antibody ab207178 from abcam”: the FAP score (0-3) was determined as 1 in experiment [1], 2 in experiment [2], 2 in experiment [3] and 0 in experiment [4].
